Results from US20030235863A1 (published 2003).
No end group written: not given here. *: point of attachment. For = O=C*

T1: C-terminal hexahistidine-tagged FPR (human, UniProt P21462 1-350)
T1 construct: Construct limits and junction are not described; also called FPR:C-H6; C-H6:FPR
T1 sequence: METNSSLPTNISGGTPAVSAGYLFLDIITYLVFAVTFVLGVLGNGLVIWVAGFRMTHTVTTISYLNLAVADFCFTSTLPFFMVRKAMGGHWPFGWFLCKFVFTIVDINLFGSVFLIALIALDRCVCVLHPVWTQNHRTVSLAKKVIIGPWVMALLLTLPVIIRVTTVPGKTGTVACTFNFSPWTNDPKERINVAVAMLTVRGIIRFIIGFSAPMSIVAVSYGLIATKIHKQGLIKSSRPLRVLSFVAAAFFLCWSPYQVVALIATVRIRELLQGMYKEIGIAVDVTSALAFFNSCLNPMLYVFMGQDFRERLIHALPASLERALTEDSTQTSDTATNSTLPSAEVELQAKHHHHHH

T2: N-terminal hexahistidine-tagged FPR (human, UniProt P21462 1-350)
T2 construct: Construct limits and junction are not described; also called N-H6:FPR
T2 sequence: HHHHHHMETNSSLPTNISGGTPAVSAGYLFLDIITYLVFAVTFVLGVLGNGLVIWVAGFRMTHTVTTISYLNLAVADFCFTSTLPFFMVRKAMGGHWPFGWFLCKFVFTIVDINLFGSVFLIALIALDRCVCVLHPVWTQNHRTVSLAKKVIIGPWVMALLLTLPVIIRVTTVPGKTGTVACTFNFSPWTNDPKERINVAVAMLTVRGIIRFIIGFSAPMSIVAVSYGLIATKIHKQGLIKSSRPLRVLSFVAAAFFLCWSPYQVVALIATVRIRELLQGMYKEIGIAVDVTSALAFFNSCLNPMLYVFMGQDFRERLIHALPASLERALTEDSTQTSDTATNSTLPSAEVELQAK

B1: FPR-Giα2 fusion protein (receptor, human;rat)
chain: METNSSLPTNISGGTPAVSAGYLFLDIITYLVFAVTFVLGVLGNGLVIWVAGFRMTHTVTTISYLNLAVADFCFTSTLPFFMVRKAMGGHWPFGWFLCKFVFTIVDINLFGSVFLIALIALDRCVCVLHPVWTQNHRTVSLAKKVIIGPWVMALLLTLPVIIRVTTVPGKTGTVACTFNFSPWTNDPKERINVAVAMLTVRGIIRFIIGFSAPMSIVAVSYGLIATKIHKQGLIKSSRPLRVLSFVAAAFFLCWSPYQVVALIATVRIRELLQGMYKEIGIAVDVTSALAFFNSCLNPMLYVFMGQDFRERLIHALPASLERALTEDSTQTSDTATNSTLPSAEVELQAKAAAMGCTVSAEDKAAAERSKMIDKNLREDGEKAAREVKLLLLGAGESGKSTIVKQMKIIHEDGYSEEECRQYRAVVYSNTIQSIMAIVKAMGNLQIDFADPQRADDARQLFALSCAAEEQGMLPEDLSGVIRRLWADHGVQACFGRSREYQLNDSAAYYLNDLERIAQSDYIPTQQDVLRTRVKTTGIVETHFTFKDLHFKMFDVGGQRSERKKWIHCFEGVTAIIFCVALSAYDLVLAEDEEMNRMHESMKLFDSICNNKWFTDTSIILFLNKKDLFEEKITQSPLTICFPEYTGANKYDEAASYIQSKFEDLNKRKDTKEIYTHFTCATDTKNVQFVFDAVTDVIIKNNLKDCGLF
notes: Solubilized in dodecyl maltoside; also called FPR-αi2; FPR-Gαi2
B2: FPR-GFP fusion protein (receptor)
chain: METNSSLPTNISGGTPAVSAGYLFLDIITYLVFAVTFVLGVLGNGLVIWVAGFRMTHTVTTISYLNLAVADFCFTSTLPFFMVRKAMGGHWPFGWFLCKFVFTIVDINLFGSVFLIALIALDRCVCVLHPVWTQNHRTVSLAKKVIIGPWVMALLLTLPVIIRVTTVPGKTGTVACTFNFSPWTNDPKERINVAVAMLTVRGIIRFIIGFSAPMSIVAVSYGLIATKIHKQGLIKSSRPLRVLSFVAAAFFLCWSPYQVVALIATVRIRELLQGMYKEIGIAVDVTSALAFFNSCLNPMLYVFMGQDFRERLIHALPASLERALTEDSTQTSDTATNSTLPSAEVELQAKAAA
notes: Solubilized in dodecyl maltoside from membranes of transfected cells; also called R^F; fluorescent formyl peptide receptor; not shown: Clontech's EGFP (enhanced green fluorescent protein), from its first amino acid
B3: formyl-MLFK-FITC (peptide)
peptide: For-MLFK
modifications: also: FITC conjugated, site not given here
notes: everywhere else it is fMLFK-FITC; also called fMLFK-FITC; fluorescent ligand
B4: formyl peptide receptor (FPR), wild type, solubilized in dodecyl maltoside (receptor, human, UniProt P21462 1-350, looked up)
chain: METNSSLPTNISGGTPAVSAGYLFLDIITYLVFAVTFVLGVLGNGLVIWVAGFRMTHTVTTISYLNLAVADFCFTSTLPFFMVRKAMGGHWPFGWFLCKFVFTIVDINLFGSVFLIALIALDRCVCVLHPVWTQNHRTVSLAKKVIIGPWVMALLLTLPVIIRVTTVPGKTGTVACTFNFSPWTNDPKERINVAVAMLTVRGIIRFIIGFSAPMSIVAVSYGLIATKIHKQGLIKSSRPLRVLSFVAAAFFLCWSPYQVVALIATVRIRELLQGMYKEIGIAVDVTSALAFFNSCLNPMLYVFMGQDFRERLIHALPASLERALTEDSTQTSDTATNSTLPSAEVELQAK
notes: Crude detergent extract of membranes, not purified; the extract holds endogenous G protein subunits; also called wild type receptor; soluble FPR

Key:
[1] = biological target: β1H6γ2 dimer on DCNi beads; assay: flow cytometry, βγ-coated DCNi beads, 1 µM GTP (bar 6) against GTPγS (bar 2)
Chain of β1H6γ2 dimer on DCNi beads (chain, as listed by the source, chain 1 of 2): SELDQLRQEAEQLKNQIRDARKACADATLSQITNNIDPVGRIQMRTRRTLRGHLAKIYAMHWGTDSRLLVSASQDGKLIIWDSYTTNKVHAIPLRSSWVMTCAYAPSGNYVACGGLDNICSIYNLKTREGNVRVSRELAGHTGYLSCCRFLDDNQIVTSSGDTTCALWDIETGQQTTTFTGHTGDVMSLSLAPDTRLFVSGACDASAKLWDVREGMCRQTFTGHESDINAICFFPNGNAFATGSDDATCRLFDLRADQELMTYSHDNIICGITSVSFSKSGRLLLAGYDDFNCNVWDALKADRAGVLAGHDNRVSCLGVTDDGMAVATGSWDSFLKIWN
Chain of β1H6γ2 dimer on DCNi beads (chain, as listed by the source, chain 2 of 2): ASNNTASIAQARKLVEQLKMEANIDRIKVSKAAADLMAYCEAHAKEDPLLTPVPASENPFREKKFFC

[2] = biological target: G protein heterotrimer αi3β1H6γ2 on DCNi beads; assay: flow cytometry, standard assembly (bar 3) against GTPγS (bar 4)
Chain of G protein heterotrimer αi3β1H6γ2 on DCNi beads (chain, as listed by the source, chain 1 of 3): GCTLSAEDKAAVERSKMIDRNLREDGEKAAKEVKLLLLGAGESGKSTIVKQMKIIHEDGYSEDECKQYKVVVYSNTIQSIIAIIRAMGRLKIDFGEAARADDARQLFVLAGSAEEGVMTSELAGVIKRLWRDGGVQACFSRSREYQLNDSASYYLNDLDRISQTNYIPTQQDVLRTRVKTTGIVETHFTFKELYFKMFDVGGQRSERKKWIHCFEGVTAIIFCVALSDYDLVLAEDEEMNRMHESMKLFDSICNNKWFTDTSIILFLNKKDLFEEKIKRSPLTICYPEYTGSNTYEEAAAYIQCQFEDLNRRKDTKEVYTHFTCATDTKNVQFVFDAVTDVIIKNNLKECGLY
Chain of G protein heterotrimer αi3β1H6γ2 on DCNi beads (chain, as listed by the source, chain 2 of 3): as the sequence (chain, as listed by the source, chain 1 of 2) above
Chain of G protein heterotrimer αi3β1H6γ2 on DCNi beads (chain, as listed by the source, chain 3 of 3): as the sequence (chain, as listed by the source, chain 2 of 2) above

[3] = biological target: T1, C-terminal hexahistidine-tagged FPR; assay: receptor on DCNi beads, flow cytometry
[4] = biological target: T2, N-terminal hexahistidine-tagged FPR; assay: receptor on DCNi beads, flow cytometry
[5] = biological target: B4; assay: spectrofluorimetry, soluble FPR in dodecyl maltoside, free ligand quenched by anti-FITC antibody
Description: For accurate analysis, and for kinetic dissociation analysis, the percent of the control curve corresponding to the percent free ligand was subtracted from the receptor-containing curve.
The free ligand and bound ligand were discriminated using an antibody to fluorescein that rapidly quenched only the free ligand.

[6] = biological target: T1, C-terminal hexahistidine-tagged FPR; assay: receptor on DCNi beads, flow cytometry with rapid mixer, anti-FITC antibody added
[7] = biological target: B4; assay: soluble receptor in detergent, spectrofluorimetry, dissociation of L^F
Description: (§1) Spectrofluorimetric Analysis of Soluble Complexes. Fluorescence was measured with an SLM 8000 spectrofluorimeter (SLM Instruments, Inc.) using the photon counting mode. The sample holder was fitted with a cylindrical cuvette adapter, which allowed the use of 200 μl samples in 7mm ×45 mm cylindrical cuvettes (Sienco; Wheat Ridge, Colo.), stirred with 2×5 mm stir bars (Bel-Art). Excitation was at 490 nm, and stray light was reduced with a 490+/−10 nm filter (Corion; now part of Spectra-Physics, Franklin, Mass.). Emission was monitored using a 520+/−10 nm filter (Corion) and a 500 nm long-pass filter (Kopp; Pittsburg, Pa.). Additions to samples during kinetic measurements were made through an injection port on the top of the sample holder with 10 μl glass syringes (Hamilton; Reno, Nev.). […] For accurate analysis, and for kinetic dissociation analysis, the percent of the control curve corresponding to the percent free ligand was subtracted from the receptor-containing curve.

[8] = biological target: T1, C-terminal hexahistidine-tagged FPR; assay: soluble receptor in detergent, dissociation of L^F
[9] = biological target: T2, N-terminal hexahistidine-tagged FPR; assay: soluble receptor in detergent, dissociation of L^F
[10] = biological target: B4; assay: soluble receptor in detergent, spectrofluorimetry
Description: as §1

[11] = biological target: T1, C-terminal hexahistidine-tagged FPR; assay: soluble receptor in detergent, spectrofluorimetry
Description: as §1

[12] = biological target: T2, N-terminal hexahistidine-tagged FPR; assay: soluble receptor in detergent, spectrofluorimetry
Description: as §1

[13] = biological target: B4; assay: spectrofluorimetric competition with L^F for soluble FPR; IC50 converted to Kd
Description: as §1
(§2) Comparison of LR and LRG Affinities for a Family of Non-fluorescent Ligands.

FPR-GFP fusion protein [14] = biological target: B2; assay: Kd from competition on soluble FPR divided by EC50 of LRG assembly with FPR-GFP
Description: as §2

FPR-GFP fusion protein [15] = biological target: B2; assay: flow cytometry, LRG assembly on DCNi G beads with 30 nM FPR-GFP
Description: Standard LRG Assembly Assay. […] Each mixture was mixed by pipetting to ensure a uniform starting suspension of the beads in 96 V-well plates (Costar), and then mixed at low speed on a vortex mixer at 7° for two hours. The 10 μl assays were individually brought to 200 μl with 0.1% dodecyl maltoside in buffer A in 12×75 mm tubes for flow cytometric measurement of fluorescence of the beads. LRG assembly was defined as the difference between fluorescence without GTPγS and that with GTPγS. All determinations were done in duplicate.

[16] = biological target: G protein heterotrimer αi3β1H6γ2 on DCNi beads; assay: flow cytometry, standard LRG assembly on nickel beads
Gαi3β4γ2H6-FLAG = biological target: T3, Gαi3β4γ2H6-FLAG; assay: flow cytometry, LRG assembly on anti-FLAG beads
T3 construct: Held on streptavidin-coated polystyrene beads through a biotinylated anti-FLAG antibody; also called αi3β4γ2-FLAG-H6
T3 sequence (P08753 2-354, chain 1 of 3): as the sequence (chain, as listed by the source, chain 1 of 3) above
T3 sequence (P29387 2-340, chain 2 of 3, further chain): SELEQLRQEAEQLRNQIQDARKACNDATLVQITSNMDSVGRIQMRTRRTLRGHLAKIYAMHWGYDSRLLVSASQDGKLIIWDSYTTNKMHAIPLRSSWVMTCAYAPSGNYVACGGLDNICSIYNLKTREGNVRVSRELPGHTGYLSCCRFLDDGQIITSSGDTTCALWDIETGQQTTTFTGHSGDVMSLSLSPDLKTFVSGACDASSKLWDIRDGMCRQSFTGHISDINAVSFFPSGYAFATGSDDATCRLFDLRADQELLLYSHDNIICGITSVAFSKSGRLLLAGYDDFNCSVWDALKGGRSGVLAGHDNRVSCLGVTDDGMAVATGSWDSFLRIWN
T3 sequence (P63212 2-68, chain 3 of 3, further chain): as the sequence (chain, as listed by the source, chain 2 of 2) above

[17] = biological target: G protein heterotrimer αi3β1H6γ2 on DCNi beads; assay: flow cytometry, L^FRG assembly on DCNi G beads

B1 was tested, and the “total fluorescence to background ratio” value [1] was 2.7 ratio.

In the case of B2, the “total binding to background ratio” value [2] is reported as 4.9 ratio.

Binder B3 has a Kd [3] of 4 nM, a Kd [4] of 8 nM and a Kd [5] of 4.8 nM. The “t1/2 (dissociation halftime)” value [6] was 14 s, the “t1/2 (dissociation halftime)” value [7] was 14 s and the “t1/2 (dissociation halftime)” value [8] was 14 s. The “t1/2 (dissociation halftime)” value [9] was 15 s, the Kd [10] was 5 nM and the Kd [11] was 10 nM. For the same binder, the Kd [12] was 7 nM.

In the case of For-MLFF [fMLFF], the Kd [13] is reported as 75 nM, the “ratio of Kd (for LR) to EC50 (for LRG formation)” value (FPR-GFP fusion protein [14]) is reported as 2.8 ratio and the EC50 (FPR-GFP fusion protein [15]) is reported as 27 nM.

In the case of B4, the “ratio of total signal to nonspecific signal” value [16] is reported as 3 ratio, the “ratio of total signal to nonspecific signal” value (Gαi3β4γ2H6-FLAG) is reported as 3 ratio and the signal to background [17] is reported as ≤ 4 ratio.
